Laboratory results reported in PMC9352680, “A comprehensive thermodynamic model for RNA binding by the Saccharomyces cerevisiae Pumilio protein PUF4”.

T1: PUF4 RNA-binding domain (Saccharomyces cerevisiae, UniProt P25339 537-888)
T1 sequence: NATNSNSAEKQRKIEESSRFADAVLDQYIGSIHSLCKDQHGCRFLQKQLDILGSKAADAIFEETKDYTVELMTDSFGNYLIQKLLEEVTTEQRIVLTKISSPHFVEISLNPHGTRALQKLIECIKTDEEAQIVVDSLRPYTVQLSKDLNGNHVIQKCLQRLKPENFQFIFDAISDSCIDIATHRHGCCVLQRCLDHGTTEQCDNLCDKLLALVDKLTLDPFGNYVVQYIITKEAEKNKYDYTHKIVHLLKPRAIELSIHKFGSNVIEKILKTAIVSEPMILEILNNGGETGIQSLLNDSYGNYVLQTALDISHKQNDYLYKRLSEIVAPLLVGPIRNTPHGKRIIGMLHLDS


Biological target: T1, PUF4 RNA-binding domain
Experiment: Mg; RNA-MaP; 20 mM Na-HEPES pH 7.4, 30 mM KOAc, 0.75 mM MgCl2, 0.1% Tween-20, 5% glycerol, 0.1 mg/mL BSA, 2 mM DTT; 25 C; 0.0125-409.6 nM protein
Settings: tags: N-His6-TEV cleaved; C-SNAP kept, Cy3B-labelled; label: tethered on chip by stalled RNA polymerase

Row | Binder | Kd
1 | UCUCUUCGUAUAUUUCUCUU (ssRNA) [Ib_S1_P3E.1_K3.1_C3.1_H3.1_[T1C]_A3.1_F3.1_[A8T]_T3.1] | 830 nM
2 | UCUCUUUGUACUAUAUCUCUU (ssRNA) [Ic_S1_P4E.1_K4.1_C4.1_H4.1_A4.1_[T5C]_[A6T]_[T7A]_F4.1_T4.1] | 1.28 nM
3 | UCUCUUUGUACUUGGUCUCUU (ssRNA) [Ic_S1_P4E.1_K4.1_C4.1_H4.1_A4.1_[T5C]_[A6T]_F4.1_[T8G]_[A9G]_T4.1] | 623 nM
4 | UCUCUUUGUACUUGCUCUCUU (ssRNA) [Ic_S1_P4E.1_K4.1_C4.1_H4.1_A4.1_[T5C]_[A6T]_F4.1_[T8G]_[A9C]_T4.1] | 414 nM
5 | UCUCUUUGUACUUGUUCUCUU (ssRNA) [Ic_S1_P4E.1_K4.1_C4.1_H4.1_A4.1_[T5C]_[A6T]_F4.1_[T8G]_[A9T]_T4.1] | 51.9 nM
6 | UCUCUUUGUACUUGAUCUCUU (ssRNA) [Ic_S1_P4E.1_K4.1_C4.1_H4.1_A4.1_[T5C]_[A6T]_F4.1_[T8G]_T4.1] | 465 nM
7 | UCUCUUUGUACUUCGUCUCUU (ssRNA) [Ic_S1_P4E.1_K4.1_C4.1_H4.1_A4.1_[T5C]_[A6T]_F4.1_[T8C]_[A9G]_T4.1] | 424 nM
8 | UCUCUUUGUACUUCUUCUCUU (ssRNA) [Ic_S1_P4E.1_K4.1_C4.1_H4.1_A4.1_[T5C]_[A6T]_F4.1_[T8C]_[A9T]_T4.1] | 75.2 nM
9 | UCUCUUUGUACUUAGUCUCUU (ssRNA) [Ic_S1_P4E.1_K4.1_C4.1_H4.1_A4.1_[T5C]_[A6T]_F4.1_[T8A]_[A9G]_T4.1] | 43 nM
10 | UCUCUUUGUACUUAUUCUCUU (ssRNA) [Ic_S1_P4E.1_K4.1_C4.1_H4.1_A4.1_[T5C]_[A6T]_F4.1_[T8A]_[A9T]_T4.1] | 34.1 nM
11 | UCUCUUUGUACUUUCUCUCUU (ssRNA) [Ic_S1_P4E.1_K4.1_C4.1_H4.1_A4.1_[T5C]_[A6T]_F4.1_[A9C]_T4.1] | 39.6 nM
12 | UCUCUUAGUAUAUUUCUCUU (ssRNA) [Ib_S1_P3E.1_K3.1_C3.1_H3.1_[T1A]_A3.1_F3.1_[A8T]_T3.1] | 1220 nM
13 | UCUCUUUGUACUUUUUCUCUU (ssRNA) [Ic_S1_P4E.1_K4.1_C4.1_H4.1_A4.1_[T5C]_[A6T]_F4.1_[A9T]_T4.1] | 19.2 nM
14 | UCUCUUUGUACAGCGUCUCUU (ssRNA) [Ic_S1_P4E.1_K4.1_C4.1_H4.1_A4.1_[T5C]_[T7G]_F4.1_[T8C]_[A9G]_T4.1] | 112 nM
15 | UCUCUUUGUACAGCUUCUCUU (ssRNA) [Ic_S1_P4E.1_K4.1_C4.1_H4.1_A4.1_[T5C]_[T7G]_F4.1_[T8C]_[A9T]_T4.1] | 78.3 nM
16 | UCUCUUUGUACAGCAUCUCUU (ssRNA) [Ic_S1_P4E.1_K4.1_C4.1_H4.1_A4.1_[T5C]_[T7G]_F4.1_[T8C]_T4.1] | 38.5 nM
17 | UCUCUUUGUACAGUGUCUCUU (ssRNA) [Ic_S1_P4E.1_K4.1_C4.1_H4.1_A4.1_[T5C]_[T7G]_F4.1_[A9G]_T4.1] | 16.5 nM

Row | Binder | Kd
18 | UCUCUUUGUACAGUCUCUCUU (ssRNA) [Ic_S1_P4E.1_K4.1_C4.1_H4.1_A4.1_[T5C]_[T7G]_F4.1_[A9C]_T4.1] | 17 nM
19 | UCUCUUUGUACAGUUUCUCUU (ssRNA) [Ic_S1_P4E.1_K4.1_C4.1_H4.1_A4.1_[T5C]_[T7G]_F4.1_[A9T]_T4.1] | 13.3 nM
20 | UCUCUUUGUACACGGUCUCUU (ssRNA) [Ic_S1_P4E.1_K4.1_C4.1_H4.1_A4.1_[T5C]_[T7C]_F4.1_[T8G]_[A9G]_T4.1] | 468 nM
21 | UCUCUUUGUACACGCUCUCUU (ssRNA) [Ic_S1_P4E.1_K4.1_C4.1_H4.1_A4.1_[T5C]_[T7C]_F4.1_[T8G]_[A9C]_T4.1] | 145 nM
22 | UCUCUUUGUACACGAUCUCUU (ssRNA) [Ic_S1_P4E.1_K4.1_C4.1_H4.1_A4.1_[T5C]_[T7C]_F4.1_[T8G]_T4.1] | 60.9 nM
23 | UCUCUUUAUAUAUGUCUCUU (ssRNA) [Ib_S1_P3E.1_K3.1_C3.1_H3.1_[G2A]_A3.1_F3.1_[A8G]_T3.1] | > 2300 nM
24 | UCUCUUUGUACACCGUCUCUU (ssRNA) [Ic_S1_P4E.1_K4.1_C4.1_H4.1_A4.1_[T5C]_[T7C]_F4.1_[T8C]_[A9G]_T4.1] | 407 nM
25 | UCUCUUUGUACACCCUCUCUU (ssRNA) [Ic_S1_P4E.1_K4.1_C4.1_H4.1_A4.1_[T5C]_[T7C]_F4.1_[T8C]_[A9C]_T4.1] | 118 nM
26 | UCUCUUUGUACACAUUCUCUU (ssRNA) [Ic_S1_P4E.1_K4.1_C4.1_H4.1_A4.1_[T5C]_[T7C]_F4.1_[T8A]_[A9T]_T4.1] | 22.6 nM
27 | UCUCUUUGUACACAAUCUCUU (ssRNA) [Ic_S1_P4E.1_K4.1_C4.1_H4.1_A4.1_[T5C]_[T7C]_F4.1_[T8A]_T4.1] | 17.1 nM
28 | UCUCUUUGUACACUGUCUCUU (ssRNA) [Ic_S1_P4E.1_K4.1_C4.1_H4.1_A4.1_[T5C]_[T7C]_F4.1_[A9G]_T4.1] | 5.05 nM
29 | UCUCUUUGUACACUCUCUCUU (ssRNA) [Ic_S1_P4E.1_K4.1_C4.1_H4.1_A4.1_[T5C]_[T7C]_F4.1_[A9C]_T4.1] | 8.95 nM
30 | UCUCUUUGUACACUUUCUCUU (ssRNA) [Ic_S1_P4E.1_K4.1_C4.1_H4.1_A4.1_[T5C]_[T7C]_F4.1_[A9T]_T4.1] | 7.32 nM
31 | UCUCUUUGUACAAGCUCUCUU (ssRNA) [Ic_S1_P4E.1_K4.1_C4.1_H4.1_A4.1_[T5C]_[T7A]_F4.1_[T8G]_[A9C]_T4.1] | 692 nM
32 | UCUCUUUGUACAACGUCUCUU (ssRNA) [Ic_S1_P4E.1_K4.1_C4.1_H4.1_A4.1_[T5C]_[T7A]_F4.1_[T8C]_[A9G]_T4.1] | 92.3 nM
33 | UCUCUUUGUACAACCUCUCUU (ssRNA) [Ic_S1_P4E.1_K4.1_C4.1_H4.1_A4.1_[T5C]_[T7A]_F4.1_[T8C]_[A9C]_T4.1] | 81 nM
